Biological target: T1, streptavidin (from Streptomyces avidinii, 50677, Sigma-Aldrich) (Streptomyces avidinii, UniProt P22629 37-163, limits assumed)
T1 construct: Commercial protein used as received
Assay: graphene FET sensor, Langmuir fit of response against concentration; mixed monolayer (25% bio-GrBP5, 75% SS-GrBP5) washed before SA was added, BSA background
Experimental: A 20 μl drop of water was placed on the sensor and the resistance was allowed to equilibrate. The device was maintained in a hydration chamber at 100% humidity to prevent evaporation. Analyte was added to the static drop on the sensor in the appropriate concentrations, so that the total volume of the drop never exceeded 35μl. Data was collected from two distinct devices and each experiment was reproduced at least once. See supporting information for additional data.
By combining the anti-fouling properties of SS-GrBP5 with the biotinylated probe peptide, we created a sensor capable of selective detection of streptavidin in a bovine serum albumin solution. A mixed peptide monolayer consisting of 25% bio-GrBP5 and 75% SS-GrBP5 was formed in a single step from a solution with an overall concentration of 10 μg/ml. […] Guided by the results in FIG. 21, we introduced 5 μg/ml BSA to the sensor and detected no binding (FIG. 22C). We then introduced sequentially increasing concentrations of SA to the sensor, while maintaining the levels of BSA, and were able to reliably detect streptavidin at 100 ng/ml, although some signal was present at even lower concentrations (FIG. 22C). […] The overall stability of the bio-GrBP5 appears to have been improved by co-assembly with SS-GrBP5, displaying very high coverage and density. […]

T1 sequence (P22629 37-163 limits assumed): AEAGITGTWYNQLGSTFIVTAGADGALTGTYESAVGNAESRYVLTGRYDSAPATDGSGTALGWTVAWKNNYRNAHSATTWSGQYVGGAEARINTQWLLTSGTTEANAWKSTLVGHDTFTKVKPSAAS

B1: Bio-GrBP5 (biotin-graphite binding peptide fusion, Bio-IMVTESSDYSSY) (peptide)
peptide: IMVTESSDYSSY
HELM: PEPTIDE1{[O=C1N[C@H]2[C@H](CS[C@H]2CCCCC(=O)[*:2])N1].I.M.V.T.E.S.S.D.Y.S.S.Y}$$$$V2.0
SMILES: CC[C@H](C)[C@H](NC(=O)CCCC[C@@H]1SC[C@@H]2NC(=O)N[C@@H]21)C(=O)N[C@@H](CCSC)C(=O)N[C@H](C(=O)N[C@H](C(=O)N[C@@H](CCC(=O)O)C(=O)N[C@@H](CO)C(=O)N[C@@H](CO)C(=O)N[C@@H](CC(=O)O)C(=O)N[C@@H](Cc1ccc(O)cc1)C(=O)N[C@@H](CO)C(=O)N[C@@H](CO)C(=O)N[C@@H](Cc1ccc(O)cc1)C(=O)O)[C@@H](C)O)C(C)C
notes: Synthetic 12-mer with N-terminal biotin; In the assays it was self-assembled on graphite (nanowires or monolayer) or on a graphene FET sensor; also called biotinilated peptide; bio-GrBP5 peptide nanowires
For B1, the Kd was roughly 1.5 nM.
